From PMC10559304 (Molecular Biology of the Cell, 2023)
Where two headings read alike, the source gives them in different places.

Legend:
[1] = target: GMPCPP-polymerized, Taxol-stabilized microtubules of the crosslinking and sliding assay (surface-immobilized HiLyte 647/biotin MTs and free rhodamine MTs); assay: MT crosslinking and sliding assay by three-colour TIRF microscopy
[2] = target: D. melanogaster KLP61F extended bipolar assembly domain (BASS-XL) minifilament (D. melanogaster) (UniProt P46863); assay: crystal structure
[3] = target: Taxol-stabilized microtubules of unlabeled, Alexa 647-labeled and biotinylated tubulin (50:2:1.5) (not stated (Pork or Bovine brains)); assay: single-molecule TIRF microscopy motility assay
[4] = target: the molecule itself; assay: single-molecule TIRF microscopy, Neon Green spot intensities
mass photometry = target: the molecule itself; assay: mass photometry
[5] = target: microtubules of biotin- and Alexa-Fluor-633-labeled porcine tubulin, polymerized with GMPCPP or Paclitaxel (porcine); assay: single-molecule TIRF microscopy motility assay
[6] = target: microtubules of biotin- and Alexa-Fluor-633-labeled porcine tubulin, polymerized with GMPCPP or Paclitaxel (porcine); assay: single-molecule TIRF microscopy motility assay; remark: listed apart in the source
[7] = target: microtubules of biotin- and Alexa-Fluor-633-labeled porcine tubulin, polymerized with GMPCPP or Paclitaxel (porcine); assay: single-molecule TIRF microscopy motility assay; remark: listed apart in the source
[8] = target: microtubules of biotin- and Alexa-Fluor-633-labeled porcine tubulin, polymerized with GMPCPP or Paclitaxel (porcine); assay: single-molecule TIRF microscopy motility assay; remark: listed apart in the source
[9] = target: microtubules of biotin- and Alexa-Fluor-633-labeled porcine tubulin, polymerized with GMPCPP or Paclitaxel (porcine); assay: single-molecule TIRF microscopy motility assay; remark: listed apart in the source

Row | percent of surface-immobilized MTs crosslinked to free MTs [1] [%] | MT plus-end dwell time [6] [s] | MT plus-end dwell time [7] [s] | Molecule | stoichiometry N (mass photometry) | further results
1 | 54 | – | – | full-length human kinesin-5 (Eg5) without the tail, GFP fusion (domain or fragment) | – | –
2 | 2 | 78 | 25 | D. melanogaster KLP61F kinesin-5 minitetramer without tail, fused to Neon Green (other) MDISGGNTSRQPQKKSNQNIQVYVRVRPLNSRERCIRSAEVVDVVGPREVVTRHTLDSKLTKKFTFDRSFGPESKQCDVYSVVVSPLIEEVLNGYNCTVFAYGQTGTGKTHTMVGNETAELKSSWEDDSDIGIIPRALSHLFDELRMMEVEYTMRISYLELYNEELCDLLSTDDTTKIRIFDDSTKKGSVIIQGLEEIPVHSKDDVYKLLEKGKERRKTATTLMNAQSSRSHTVFSIVVHIRENGIEGEDMLKIGKLNLVDLAGSENVSKAGNEKGIRVRETVNINQSLLTLGRVITALVDRAPHVPYRESKLTRLLQESLGGRTKTSIIATISPGHKDIEETLSTLEYAHRAKNIQNKPEVNQKLTKKAQSLQDQTNLHNKLIGEVMKISDQHSQAFVAKLMEQMQQQQLLMSKEIQTNLQVIEENNQRHKAMLDSMQEKFATIIDSSLQSVEEHAKQMHKKLEQLGAMSLPDAEELQNLQEELANERALAQQEDALLESMMMQMEQIKNLRSKNSISMSVHLNKMEESRLTRNHRIDDIKSGIQDYQKLGIEASQSAQAELTSQMEAGMLCLDQGVANCSMLQVHMKNLNQKYEKETNENVGSV | 4 | –

Second part, the molecule before the results:

Row | Molecule | percent of surface-immobilized MTs crosslinked to free MTs [1] [%] | MT plus-end dwell time [6] [s] | MT plus-end dwell time [7] [s] | stoichiometry N (mass photometry) | further results
3 | D. melanogaster KLP61F extended bipolar assembly domain (BASS-XL) minifilament (from UniProt P46863 597-833) (domain or fragment) | – | – | – | – | stoichiometry N [2]: 4
4 | human Eg5 kinesin-5 minitetramer without tail, labeled with Tetra-methyl Rhodamine (from UniProt P52732;P46863) | – | – | – | – | lifetime at MT plus-ends, long population (Weibull a2) [3]: 140 s; lifetime at MT plus-ends, short population (Weibull a1) [3]: 14.6 s
5 | D. melanogaster KLP61F kinesin-5 minitetramer with tail, fused to Neon Green (other) MDISGGNTSRQPQKKSNQNIQVYVRVRPLNSRERCIRSAEVVDVVGPREVVTRHTLDSKLTKKFTFDRSFGPESKQCDVYSVVVSPLIEEVLNGYNCTVFAYGQTGTGKTHTMVGNETAELKSSWEDDSDIGIIPRALSHLFDELRMMEVEYTMRISYLELYNEELCDLLSTDDTTKIRIFDDSTKKGSVIIQGLEEIPVHSKDDVYKLLEKGKERRKTATTLMNAQSSRSHTVFSIVVHIRENGIEGEDMLKIGKLNLVDLAGSENVSKAGNEKGIRVRETVNINQSLLTLGRVITALVDRAPHVPYRESKLTRLLQESLGGRTKTSIIATISPGHKDIEETLSTLEYAHRAKNIQNKPEVNQKLTKKAQSLQDQTNLHNKLIGEVMKISDQHSQAFVAKLMEQMQQQQLLMSKEIQTNLQVIEENNQRHKAMLDSMQEKFATIIDSSLQSVEEHAKQMHKKLEQLGAMSLPDAEELQNLQEELANERALAQQEDALLESMMMQMEQIKNLRSKNSISMSVHLNKMEESRLTRNHRIDDIKSGIQDYQKLGIEASQSAQAELTSQMEAGMLCLDQGVANCSMLQVHMKNLNQKYEKETNENVGSVQICEQELVRFQQSELKTYAPTGTTPSKRDFVYPRTLVATSPHQEIVRRYRQELDWSDLDTTATIDECSEGEHDVSMHSVQELSETETIMNSTPIEPVDGVTVKRGCGTTRNSNSNALKPPVATGGKRSSSLSRSLTPSKTSPRGSPAFVRHNKENVA | 24 | 117 | 267 | 4 | stoichiometry N [4]: 5 to 10 motors per cluster; MT plus-end dwell time [5]: 125 s; MT plus-end dwell time [8]: 147 s; MT plus-end dwell time [9]: 25 s
